In publication PMC10772735, “Characterization of erythroferrone oligomerization and its impact on BMP antagonism” (The Journal of Biological Chemistry, 2023):
Substitutions are numbered along the chain they refer to. Names and notes keep the numbering of the source. Values joined by “and” are separate entries in the source; they are usually repeats but may differ in a detail not shown here. Equal values may be shown once. Read-outs that look alike come from different tables or passages of the source.

What was measured:
[1] = target: Alk3-Fc ECD (Homo sapiens) (UniProt P36894); conditions: cited from earlier work
Chain of Alk3-Fc ECD (Homo sapiens) (P36894 24-152): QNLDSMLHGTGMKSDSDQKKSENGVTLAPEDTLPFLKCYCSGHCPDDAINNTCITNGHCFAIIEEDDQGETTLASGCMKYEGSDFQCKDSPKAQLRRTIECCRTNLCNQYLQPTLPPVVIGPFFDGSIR

BMP6 [2] = target: BMP6 (UniProt P22004); assay: SPR competition (BMP6 + ERFE over Alk3-Fc captured on protein A chip); conditions: curve maximum near the ~300 s dotted line, RU is residual BMP6 binding to Alk3-Fc (lower RU = more competition by ERFE) …, read off a plot
BMP6, P22004 = target: T1, BMP6, P22004; assay: as above; conditions: chain shown with the change, curve maximum near the ~300 s dotted line, read off a plot
T1 chain: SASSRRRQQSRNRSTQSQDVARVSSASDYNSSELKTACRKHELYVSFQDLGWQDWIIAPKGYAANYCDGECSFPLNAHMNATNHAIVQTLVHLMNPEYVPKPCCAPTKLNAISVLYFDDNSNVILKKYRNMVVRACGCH

[3] = target: the molecule itself; assay: non-reducing SDS-PAGE; purified ERFE analysed by SDS-PAGE under reducing and nonreducing conditions; shows only disulfide-linked species
[4] = target: the molecule itself; assay: AUC; sedimentation velocity, full-length ERFE constructs, 0.5 mg/ml, 20,000 rpm, 20 °C, absorbance at 230 nm, freshly purified never frozen protein after dialysis (20 mM Hepes pH 7.5, 150 mM NaCl, 5 mM CaCl2); oligomeric states assigned qualitatively from approximate masses
BMP2 = BMP2 (UniProt P12643 283-396); assay: cell-based or functional assay
Chain of BMP2 (P12643 283-396): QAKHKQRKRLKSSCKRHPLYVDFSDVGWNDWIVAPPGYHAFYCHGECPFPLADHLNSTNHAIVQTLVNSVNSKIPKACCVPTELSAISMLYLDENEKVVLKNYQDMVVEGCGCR

BMP7 = target: T2, BMP7 (UniProt P18075 293-431); assay: cell-based or functional assay
T2 sequence (looked up): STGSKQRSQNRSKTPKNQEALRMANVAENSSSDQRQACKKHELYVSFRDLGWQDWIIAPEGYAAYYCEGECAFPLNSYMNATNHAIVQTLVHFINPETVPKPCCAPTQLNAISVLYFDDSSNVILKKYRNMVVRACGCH

BMP6 [5] = target: T3, BMP6 (UniProt P22004 375-513); assay: cell-based or functional assay
T3 sequence (looked up): T1 chain

GDF5 = target: T4, GDF5 (UniProt P43026 382-501); assay: cell-based or functional assay
T4 sequence (looked up): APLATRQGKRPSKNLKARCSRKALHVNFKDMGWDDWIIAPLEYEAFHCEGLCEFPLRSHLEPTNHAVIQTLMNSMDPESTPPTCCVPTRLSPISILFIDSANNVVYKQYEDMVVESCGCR

BMP6 [6] = target: T3, BMP6; assay: cell-based or functional assay; remark: listed apart in the source
BMP6 [7] = target: T3, BMP6; assay: cell-based or functional assay; remark: listed apart in the source
[8] = target: the molecule itself; assay: AUC; sedimentation velocity, ΔC1Q ERFE mutants, 0.5 mg/ml, 40,000 RPM, 20 °C, absorbance at 230 nm, never frozen protein after dialysis; oligomeric states assigned qualitatively from approximate masses

BMP6 (from UniProt P22004)
Kd [1]: 62.5 nM

ΔC1Q ERFE (from UniProt Q4G0M1) CLR* (center PGP in the CLR to SSS); C155S; C157S
response (BMP6 [2]; 10 nM BMP6 + 80 nM CLR*Cys*ΔC1Q ERFE): 19 RU | response (BMP6 [2]; 10 nM BMP6 + 160 nM CLR*Cys*ΔC1Q ERFE): 17 RU

B1: N-terminally flag-tagged hERFE (residues 44–354), WT erythroferrone, Q4G0M1 CLR* (center PGP in the CLR to SSS); C155S; C157S; C208S (protein)
chain: PPPGNELPRGPGESRAGPAARPPEPTAERAHSVDPRDAWMLFVRQSDKGVNGKKRSRGKAKKLKFGLPGPPGPSSSQGPPGPIIPPEALLKEFQLLLKGAVRQRERAEPEPSTSGPAGPVAASLAPVSATAGEDDDDVVGDVLALLAAPLAPGPRAPRVEAAFLSRLRRDALVERRALHELGVYYLPDAEGAFRRGPGLNLTSGQYRAPVAGFYALAATLHVALGEPPRRGPPRPRDHLRLLICIQSRCQRNASLEAIMGLESSSELFTISVNGVLYLQMGQWTSVFLDNASGCSLTVRSGSHFSAVLLGV
response (BMP6, P22004; 10 nM BMP6 + 5 nM CLR*Cys* ERFE, RU is residual BMP6 binding to Alk3-Fc (lower RU = more competition by ERFE), BMP6 …): 11 RU | response (BMP6, P22004; 10 nM BMP6 + 10 nM CLR*Cys* ERFE, RU is residual BMP6 binding to Alk3-Fc (lower RU = more competition by ERFE), BMP6 …): 8.7 RU | response (BMP6, P22004; 10 nM BMP6 + 20 nM CLR*Cys* ERFE, RU is residual BMP6 binding to Alk3-Fc (lower RU = more competition by ERFE), BMP6 …): 6.2 RU | response (BMP6, P22004; 10 nM BMP6 + 40 nM CLR*Cys* ERFE, RU is residual BMP6 binding to Alk3-Fc (lower RU = more competition by ERFE), BMP6 …): 4 RU | response (BMP6, P22004; 10 nM BMP6 + 80 nM CLR*Cys* ERFE, RU is residual BMP6 binding to Alk3-Fc (lower RU = more competition by ERFE), BMP6 …): 2.3 RU | response (BMP6, P22004; 10 nM BMP6 + 160 nM CLR*Cys* ERFE, RU is residual BMP6 binding to Alk3-Fc (lower RU = more competition by ERFE) …): 1.2 RU

B2: N-terminally flag-tagged hERFE (residues 44–354), WT erythroferrone (natural protein, human, UniProt Q4G0M1 44-354, looked up)
chain: B1 chain with S74P, S75G, S76P, S112C, S114C, S165C
notes: erythroferrone (ERFE, FAM132B), human, residues 44-354; By AUC a mixture of trimer, hexamer and a little high molecular weight species; also called WT ERFE; N-Flag ERFE; not shown: FLAG, N-terminal, kept
stoichiometry N [3]: 2 | stoichiometry N [4]: 3 and 6 | IC50 of ERFE inhibition of BMP2 (2.5 nM) signalling, BMP responsive luciferase assay (BRE promoter) (BMP2): 170 nM | IC50 of ERFE inhibition of BMP7 (2.5 nM) signalling, BMP responsive luciferase assay (BRE promoter) (BMP7): 8.9 nM | IC50 of ERFE inhibition of BMP6 (2.5 nM) signalling, BMP responsive luciferase assay (BRE promoter) (BMP6 [5]): 5.2 nM | IC50 of ERFE inhibition of GDF5 (2.5 nM) signalling, BMP responsive luciferase assay (BRE promoter) (GDF5): 130 nM

B3: Cys∗ ERFE (natural protein, human, UniProt Q4G0M1 44-354, looked up)
chain: B1 chain with S74P, S75G, S76P
notes: erythroferrone (ERFE), human, residues 44-354, Cys155, 157 and 208 mutated to serines; source: some mutants αFlag resin first; not shown: FLAG, N-terminal, kept
IC50 of inhibition of 2.5 nM BMP6 signalling, luciferase reporter, BRITER cells (BMP6 [6]): 8.7 nM | stoichiometry N [4]: 3

B4: N94A ERFE (natural protein, human, UniProt Q4G0M1 44-354, looked up)
chain: B1 chain with N51A, S74P, S75G, S76P, S112C, S114C, S165C
IC50 of inhibition of 2.5 nM BMP6 signalling, luciferase reporter, BRITER cells (BMP6 [7]): 21 nM

B5: D90A ERFE (natural protein, human, UniProt Q4G0M1 44-354, looked up)
chain: B1 chain with D47A, S74P, S75G, S76P, S112C, S114C, S165C
IC50 of inhibition of 2.5 nM BMP6 signalling, luciferase reporter, BRITER cells (BMP6 [7]): 13 nM

B6: Cys∗ΔC1Q ERFE (domain or fragment, human, UniProt Q4G0M1 44-207, looked up)
chain: PPPGNELPRGPGESRAGPAARPPEPTAERAHSVDPRDAWMLFVRQSDKGVNGKKRSRGKAKKLKFGLPGPPGPPGPQGPPGPIIPPEALLKEFQLLLKGAVRQRERAEPEPSTSGPAGPVAASLAPVSATAGEDDDDVVGDVLALLAAPLAPGPRAPRVEAAFL
notes: erythroferrone (ERFE), human, stop codon at C208, Cys155 and Cys157 mutated to serines (C208 is not in the truncated chain); source: Expi293, transfected, purified; not shown: FLAG, N-terminal, kept
IC50 of inhibition of 2.5 nM BMP6 signalling, luciferase reporter, BRITER cells (BMP6 [6]): 97 nM | stoichiometry N [8]: 3

B7: CLR∗ΔC1Q ERFE (domain or fragment)
chain: B6 chain with P74S, G75S, P76S, S112C, S114C
IC50 of inhibition of 2.5 nM BMP6 signalling, luciferase reporter, BRITER cells (BMP6 [6]): 27 nM | stoichiometry N [8]: 2

B8: ΔC1Q ERFE (domain or fragment, human, UniProt Q4G0M1 44-207, looked up)
chain: B6 chain with S112C, S114C
notes: erythroferrone (ERFE), human, construct from residue 44 with a stop codon introduced at C208, removing the entire C1Q domain; source: Expi293, transfected, purified; not shown: FLAG, N-terminal, kept
IC50 of inhibition of 2.5 nM BMP6 signalling, luciferase reporter, BRITER cells (BMP6 [6]): 7.8 nM | stoichiometry N [8]: 3 | stoichiometry N [3]: 2

B9: CLR∗Cys∗ΔC1Q ERFE (domain or fragment)
chain: B6 chain with P74S, G75S, P76S
IC50 of inhibition of 2.5 nM BMP6 signalling, luciferase reporter, BRITER cells (BMP6 [6]): 290 nM
